Assays:
[1] = target: SPP1 tails lacking gp16.1 and gp17 (bacteriophage SPP1) (UniProt O48449)
[2] = target: SPP1 tails carrying gp16.1 and lacking gp17 (bacteriophage SPP1) (UniProt O48449)

B1: gp17 of bacteriophage SPP1, purified (natural protein)
chain: MTWKLASRALQKATVENLESYQPLMEMVNQVTESPGKDDPYPYVVIGDQSSTPFETKSSFGENITMDFHVWGGTTRAEAQDISSRVLEALTYKPLMFEGFTFVAKKLVLAQVITDTDGVTKHGIIKVRFTINNN
[1]
  infectious particles formed in vitro in SPP1gp16.1−-gp17− extract with 20 µM purified gp16.1 added, against purified gp17; gp17 concentration at the plateau: 0.2 µM
[2]
  infectious particles formed in vitro in SPP1gp17− extract (tails with endogenous gp16.1) against 0.003–20 µM purified gp17; gp17 concentration at the plateau: 6 µM
